“Also recorded” adds a separate entry of the source.
How the values were obtained:
[1] = molecular target: T1, TfR1 in mouse liver tissue (Mus musculus, UniProt Q62351); experiment: Staining of normal mouse liver frozen tissue; conditions: frozen tissue samples
T1 construct: from tissue; host or cells: normal mouse liver, frozen sections
Description: FIGS. 12A-12B show 3F3 FMA staining in human Huntington's disease brains and mouse tissues. In FIG. 12A, human HD and control brain tissues were fixed in 4% PFA for 24 h, perfused in 30% sucrose for 24 h, and stained with DAPI (nuclei, blue) and 3F3 FMA (red). The expression level of TfR1 is low. There was no difference between HD and control groups. In FIG. 12B, mouse liver tissues and mouse GBM tissues were fixed and stained with DAPI (nuclei, blue) and 3F3 FMA (red). 3F3 FMA was able to recognize mouse TfR1.

[2] = molecular target: T2, transferrin receptor protein 1 (Homo sapiens, UniProt P02786); experiment: siRNA knockdown of TfR1 followed by immunofluorescence; assay type: cell-based; conditions: HT-1080 cells, siTfR1 vs siNT
T2 construct: First, we incubated 3F3-FMA with a cell lysate overnight; endogenous in cells; host or cells: HT-1080 (ATCC CRL-7951)
Description: 10 μM of siRNAs were combined with 250 μl of Opti-MEM serum-free media (Life Technologies 31985-070) in one tube. 6 μl of Lipofectamine RNAiMAX (Thermo Fisher Scientific 13778150) was combined with 250 μl of Opti-Mem media in another tube. They were equilibrated at r.t. for 5 min. Then two tubes were combined, transferred into 6-well plate and incubated at 37° C. for 20 min. 0.25 million HT-1080 cells were then added to 6-well plate and incubated for 48 h. Cells were reseeded in regular media for additional 24 h. Regular IF procedure was then conducted.

[3] = system: B cell lymphoma (SU-DHL-6) mouse xenograft tumor tissue; experiment: Staining of B cell lymphoma mouse xenograft tumor tissue sections; design: species or system human; conditions: 40 mg/kg IKE once daily IP 14 days
Description: Tumor tissues were fixed in 4% paraformaldehyde (PFA) for 24 h at 4° C. followed by washing with PBS three times. The tissues were perfused in 30% sucrose for 24 h at 4° C. for cryo-protection. The samples were embedded in OCT cryostat sectioning medium, and then moved directly into a cryostat. After equilibration of temperature, frozen tumor tissues were cut into 5 μm thick sections. Tissue sections were mounted on to poly-L-lysine coated slides by placing the cold sections onto warm slides. Slides were stored at −80° C. until staining. For staining, slides were warmed to room temperature followed by washing with PBS twice. A hydrophobic barrier pen was used to draw a circle on each slide. The slides were permeabilized with PBS with 0.4% Triton X-100 (PBT) twice before non-specific-binding blocking by incubating the sections with 10% goat serum (ThermoFisher 50197Z) for 30 min at room temperature. […] All images were captured on a Zeiss LSM 800 confocal microscope at Plan-Apochromat 63x/1.40 Oil DIC objective with constant laser intensity for all analyzed samples. The intensity above threshold of the fluorescent signal of the bound antibodies was analyzed using NIH ImageJ software (ImageJ, RRID:SCR_003070). Data were expressed as fold change comparing with the vehicle. […]

T1 sequence (Q62351 whole entry): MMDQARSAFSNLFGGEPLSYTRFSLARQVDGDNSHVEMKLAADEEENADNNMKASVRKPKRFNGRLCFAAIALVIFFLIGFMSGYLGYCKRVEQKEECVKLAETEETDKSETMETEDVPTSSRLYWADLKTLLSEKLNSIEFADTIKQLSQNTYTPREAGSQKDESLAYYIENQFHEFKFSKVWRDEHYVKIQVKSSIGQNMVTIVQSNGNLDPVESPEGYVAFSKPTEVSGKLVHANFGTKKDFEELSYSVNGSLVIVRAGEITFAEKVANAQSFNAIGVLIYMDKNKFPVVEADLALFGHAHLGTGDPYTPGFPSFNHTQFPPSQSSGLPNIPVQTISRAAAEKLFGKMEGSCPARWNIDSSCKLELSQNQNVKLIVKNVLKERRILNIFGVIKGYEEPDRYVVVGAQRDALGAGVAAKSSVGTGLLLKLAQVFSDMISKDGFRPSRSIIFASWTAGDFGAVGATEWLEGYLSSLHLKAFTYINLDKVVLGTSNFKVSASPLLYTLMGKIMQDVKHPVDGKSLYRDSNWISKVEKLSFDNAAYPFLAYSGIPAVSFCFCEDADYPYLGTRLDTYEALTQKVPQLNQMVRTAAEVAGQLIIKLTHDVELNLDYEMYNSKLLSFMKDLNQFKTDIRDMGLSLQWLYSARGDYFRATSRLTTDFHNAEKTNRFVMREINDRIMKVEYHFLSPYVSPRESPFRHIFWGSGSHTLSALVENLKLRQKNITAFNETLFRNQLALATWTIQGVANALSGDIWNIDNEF
T2 sequence (P02786 whole entry): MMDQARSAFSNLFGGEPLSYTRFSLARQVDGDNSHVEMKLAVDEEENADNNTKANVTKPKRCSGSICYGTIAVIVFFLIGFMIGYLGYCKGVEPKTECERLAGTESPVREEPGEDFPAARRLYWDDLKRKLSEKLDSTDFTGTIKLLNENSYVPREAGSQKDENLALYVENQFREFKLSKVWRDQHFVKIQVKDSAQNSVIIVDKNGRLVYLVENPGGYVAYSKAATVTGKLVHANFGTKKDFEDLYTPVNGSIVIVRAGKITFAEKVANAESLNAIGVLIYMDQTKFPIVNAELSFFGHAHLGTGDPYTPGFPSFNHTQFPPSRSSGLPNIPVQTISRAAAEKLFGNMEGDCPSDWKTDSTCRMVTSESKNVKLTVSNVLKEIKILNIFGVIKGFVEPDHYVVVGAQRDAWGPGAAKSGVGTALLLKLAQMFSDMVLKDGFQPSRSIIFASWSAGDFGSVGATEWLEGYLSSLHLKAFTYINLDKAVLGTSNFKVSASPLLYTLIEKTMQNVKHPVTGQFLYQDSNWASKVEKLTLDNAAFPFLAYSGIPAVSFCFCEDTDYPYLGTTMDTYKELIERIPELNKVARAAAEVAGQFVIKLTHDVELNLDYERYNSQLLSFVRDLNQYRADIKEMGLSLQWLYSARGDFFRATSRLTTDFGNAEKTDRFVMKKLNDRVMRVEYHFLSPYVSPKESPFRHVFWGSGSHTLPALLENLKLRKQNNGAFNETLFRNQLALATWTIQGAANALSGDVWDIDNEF

B1: 3F3-FMA: murine monoclonal IgG1 raised against ferroptotic membrane fractions; antigen is human transferrin receptor protein 1 (TfR1) (antibody, V domains shown)
VH: EVLLQQSGTELVRPGALVKLSCKASGFNIQDLYIHWVKQRPEQGLEWIGWIDPETDNTIYDPKFQGKASITADTSSNTAYLQLSSLTSEDTAMYYCSTGLLQWYFDVWGAGTAVTVSS
VL: DIVMTQSPSSLAMSIGQKVTMRCKSSQSLLNSYNQKNCLAWYQQKPGQSPKLLLYFVSTRESGVPDRFIGSGSGTDFTLTISSVQAEDLADYFCQQHYSTPLTFGAGTKLELK
- staining signal in normal mouse liver [1]: robust signal
- staining in siTfR1-transfected cells [2]: wasn't any detectable staining
- staining intensity, IKE-treated vs vehicle samples [3]: did not detect its antigen; also recorded: no difference
